Experimental data taken from patent US20150346208A1 (SPRING BIOSCIENCE, published 2015).

Tests used:
[1] = molecular target: T1, human PD-L1 (Programmed death ligand-1) (human, UniProt Q9NZQ7 19-290); experiment: IHC on FFPE placenta, 0.9 µg/ml
T1 construct: whole, on cells; Endogenous protein; For IHC it was in formalin-fixed, paraffin-embedded tissue sections; for the Western blot it was in SDS-PAGE-fractionated cell lysates (45-55 kDa band); also called B7-H1; PDCD1L1
Protocol: Rabbit anti-human PD-L1 monoclonal antibodies SP263, J45H2L4 and J27H6L4 were applied onto formalin-fixed paraffin embedded (FFPE) tissue samples to assess the staining patterns of these antibodies. Tissue samples include placenta (positive control), stomach (negative control) and colon. Immunohistochemistry was performed on BenchMark Ultra (Ventana Medical System) using StdCC1 cell conditioning and standard Opt iView DAB detection protocol. Each primary antibody was incubated at 0.9 μg/ml for 16 min.

[2] = molecular target: T1, human PD-L1 (Programmed death ligand-1); experiment: IHC on FFPE placenta, 0.11-28 µg/ml
[3] = molecular target: T2, peptide immunogen CGIQDTNSKKQSDTHLEET (human PD-L1 aa 272-290) (human); experiment: ELISA, immobilized peptide immunogen (human PD-L1 aa272-290)
T2 construct: Synthetic peptide, immobilized in the ELISA; also called immobilized peptide immunogen; 19-amino acid peptide
T2 peptide: CGIQDTNSKKQSDTHLEET
Protocol: ELISA studies were performed with the SP263 antibody to evaluate binding to the immobilized peptide immunogen (human PD-L1 aa272-290).

T1 sequence (Q9NZQ7 19-290): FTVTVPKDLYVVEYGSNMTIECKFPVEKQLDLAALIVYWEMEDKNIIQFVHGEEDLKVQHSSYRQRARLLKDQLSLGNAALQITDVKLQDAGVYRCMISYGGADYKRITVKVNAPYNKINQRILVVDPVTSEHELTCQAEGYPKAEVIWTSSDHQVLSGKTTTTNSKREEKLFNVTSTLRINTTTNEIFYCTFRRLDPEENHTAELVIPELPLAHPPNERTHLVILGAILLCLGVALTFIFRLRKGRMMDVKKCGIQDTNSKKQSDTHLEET

Row | EC50 [3] | Binder | binding result [1] | binding result [2]
1 |  | J45H2L4 rabbit anti-human PD-L1 monoclonal antibody (antibody, V domains shown, the rabbit constant regions are not; also called anti-PD-L1 antibody clone J45H2L4) VH: QSLEESGGRLVTPGTPLTLTCTASGFSLSSNAISWVRQAPGKGLEWIGTINSDSHIYSATWAKGRFTISKTSTAVDLKMTSPTTEDTATYFCAGRLFSSTNIWGPGTLVTVSS VL: VMTQTSSPVSAAVGGTVTINCQASQSIYKDNWLSWFQQKPGQPPKLLIYLASTLASGVPSRFKGSGSGTQFTLTISDVVCDDAATYYCLGGESSSDDGIAFGGGTEVVVK | binds | 
2 | 0.015 nM | SP263 rabbit anti-human PD-L1 monoclonal antibody (antibody, V domains shown, the rabbit constant regions are not; also called SP263 anti-PD-L1 antibody) VH: QSLEESGGRLVTPGTPLTLTCTASGFSLSNHAISWVRQAPGKGLEWIGTINSDTHTYYATWPKGRFTISKTSSTTVDLKMTSPTTEDTATYFCARRIFSSSNIWGPGTLVTVSS VL: AIVMTQTSSPVSAVVGGTVAINCQASQSIYNNNWLSWFQQKPGQPPKLLIYLASTLASGVPSRFKGSGSGTQFTLTISDVVCDDAATYYCIGGESSNNDGIAFGGGTEVVVK |  | binds
